Assay: yeast display, Sf9 membrane polyspecificity reagent, FACS + sequencing; frameworks hold sequencing errors
Outline: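 Galactose induction of a Saccharomyces cerevisiae BJ5465 synthetic nanobody display library ran 36–48 hours. The cells were then stained for 1 hour at 4 °C with 10% biotinylated, detergent-solubilized Sf9 membrane reagent, pulled down on streptavidin microbeads and FACS-sorted into low and high (top ~1%) gates on expression and reagent-binding fluorescence. Labels for polyreactivity follow the gate of origin.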

Sequence | polyreactivity (PSR sort gate)
QVQLVESGGGLVQAGGSLRLSCAASGRIFEHYPMGWYRPAPGKERELVAAISRSGGRTYYADSVKGRFTISRDNAKNTVTLQMNSVKPEDTEVDYCAAVGVYWYVYPHEYDYWGQGSQVTVSS | high polyreactivity
QVQLVESGGGLVQAGGSLRLSCAASGRIFEKYAMGWYRQAPGKERELVAAISYSGGSTYYADSVKGRFTISRDNAKNTVYLQMNSLKPEDTAVYYCARYSRTQAYDYWGQGTQVTVSS | high polyreactivity
QVQLVESGGGLVQAGGSLRLSCAASGRIFENNAMGWYRPAPGKERELVAAITSGGSTYYADSVKGRFTISRDNAKNTVYLQMNSLKPEDTAVYYCNVTFRVDPWTRTGYDYWGQGTQVTVSS | high polyreactivity
QVQLVESGGGLVQAGGSLRLSCAASGRIFERYAMGWYRQAPGKERELVAAISGGGSTYYADSVKGRFTISRDNAKNTVYLQMNSLTPEDTAFYYCNTRGNSRMDYWGQGTQVTVSS | high polyreactivity
QVQLVESGGGLVQAGGSLRLSCAASGRIFEVYTMGWYRQAPGKERELVAAIDRSTGSTYYADSVKGRFTISRDNAKNTVYLQMHSLKPEDTAVYYCAARGTFLGTRPLGRFDYWGQGTQVTVSS | low polyreactivity
QVQLVESGGGLVQAGGSLRLSCAASGRIFEYAMGWYRQAPGKERELVAGITRSSSTNYADSVKGRFTISRDNAKNTVYLQKNSLKPEDTAVYYCNAESRSWYLYHYDYWGQGTQVTVSS | low polyreactivity
QVQLVESGGGLVQAGGSLRLSCAASGRIFFGYAMGWYRQAPGKERELVATISYNDTSTYYADSVKGRFTISRDNAKNTVYLQMNSLKPEDTAVYYCAKSLGAPASDDYWGQGTQVTVSS | low polyreactivity
QVQLVESGGGLVQAGGSLRLSCAASGRIFFHYAMGWYRQPPGKERELVAVISSSGGITYYADSVKGRFTISRDNAKNTVYLQMNSLKPEDTAVYYCNTVPRPFDRYGYWGQGTQVTVSS | low polyreactivity
QVQLVESGGGLVQAGGSLRLSCAASGRIFFNYAMGWYSQAPGKERELVAAIRGGGSTYADSVKGRFTISRDNAKNTVYLQLNSLKPADTAVYYCAARYSGSPYHTRRYYYWGQGTQVTVSS | high polyreactivity
QVQLVESGGGLVQAGGSLRLSCAASGRIFFPNPMGWYRQAPGKDREFVAGITVSGGSTYYADSVKGRFTISRDNAKNTVYFQMNSLKPEDTAVYYCGAYWAQGTRYEYRLNYWGQGTLVTVSS | low polyreactivity
QVQLVESGGGLVQAGGSLRLSCAASGRIFFRYVMGWYRQAPGKERELVAAISSGGRTYYADSVKGRFTISRDNAKNTVYLQMNSLKPEDTAVYYCAADLLLYSSQDNDYWGQGTQVTVSS | low polyreactivity
QVQLVESGGGLVQAGGSLRLSCAASGRIFFSNAMGWYRQAQGKEREMVASITGGDDTNYADSVKGRFTISRDNAKNTVYLQMNSLKPEDTAVYYCAARAIPSYRWFYRFAPKYDYWGQGTQVTVSS | low polyreactivity
QVQLVESGGGLVQAGGSLRLSCAASGRIFFTYAMGWYRQAPGKERELVASITGSGGSTYYADSVKGRFTISRDNAKNTVYLQMNSLQPEETAVYYCAAALFPRQLYRKFYYWGQGTQVTVSS | low polyreactivity
QVQLVESGGGLVQAGGSLRLSCAASGRIFFVNAMGWYRQAPGKERELVAAISRGGSTNYADSVKGRFTISRDNAKNTVYLQMNSLKPEDTEVYYCNADGSSYWYPVPLDGGDYWGQGTQVTVSS | low polyreactivity
QVQLVESGGGLVQAGGSLRLSCAASGRIFFVYAMGWYRQAPGKERELVAAITASGGSTYYADSVKVRFTISRDNAKNSVYLQMNSLNPEDTAVYDCAAAGYGWGGYREYGWGQGTQVTVSS | low polyreactivity
QVQLVESGGGLVQAGGSLRLSCAASGRIFFWYAMGWYRQAPGKERELVASINWSGVSTYYADSVKGRFTISRDNAKNTVYLQMNSLKPEDTAVYYCNRVRGLYWQRHGYWGQGTQVTVSS | high polyreactivity
QVQLVESGGGLVQAGGSLRLSCAASGRIFFYAMGWYRQAPGKERELVASITTSGTSTYYADSVKGRFTISRDNAKNTVYLQMNSLKPEDTAVYYCNATSNSIRWYDFYYWGQGTQVTVSS | low polyreactivity
QVQLVESGGGLVQAGGSLRLSCAASGRIFFYYAKGWSRQAPGKARELVAAINRGGRTYYADSVKGRFTISRDNAKNTVYLQMNSLKPEDTADYYCAADCHTAKSNFDYWGQGTQVTVSS | low polyreactivity
QVQLVESGGGLVQAGGSLRLSCAASGRIFFYYAMGLYRQATGKERELVAAITDSVDSTYYADSVKGRFTISRDNAKNTVYFQMKSLKPEDTAVYYCATDVDWAYGYHYEYWGQGPQVTVSS | low polyreactivity
QVQLVESGGGLVQAGGSLRLSCAASGRIFFYYAMGWYRQAPGKERELVAAISQSGGSSYYADSVKGRFTISRDNAKNTVYLQLTSLKPEDTAVYYCAADDRYYTYGYDYWGQGTQVTVSS | low polyreactivity
QVQLVESGGGLVQAGGSLRLSCAASGRIFGAYAMGWYRQAPGKERELVAAITSRGGNTYYADSVKGRFTISRDNAKNTVYFQMNSLKPEDTAVYYWAARHDKRRQYYVGQSAFDYWGQGTQVTVSS | low polyreactivity
QVQLVESGGGLVQAGGSLRLSCAASGRIFGAYAMGWYRQAPGKERELVASITGRGTSTYYADSVKGRFTISRDNAKNTVYLQMNSLKPEDSAVYYCAADKTVRSSNYDYWGQGTQVTVSS | low polyreactivity

Sequence | polyreactivity (PSR sort gate)
QVQLVESGGGLVQAGGSLRLSCAASGRIFGDNAMGWYRQAPGKEREFVAAISWSGGTTYYADSVKGRFTISRDNAKNTVYLQMNSLKPEDTAVYYCAADYTRGYDYWGQGTQVTVSS | low polyreactivity
QVQLVESGGGLVQAGGSLRLSCAASGRIFGDNAMGWYRQAPGKERELVAAITSGGNTYYADSVKGRFTISRDNAKNTVYLQMNSLKPEDTAVYYCNVADWRRWGYDYWGQGTQVTVSS | low polyreactivity
QVQLVESGGGLVQAGGSLRLSCAASGRIFGFYAMGCYRQAPGKERELVAVITYRDGRTYYADSVKGRFTISRDNEKNTVYLQMNSLKPEDTAVYYCARGYQGRLKYESWGQGTQVTVSS | low polyreactivity
QVQLVESGGGLVQAGGSLRLSCAASGRIFGFYAMGWYRPAPGKERELVARITLSGGRTYYADSVKGRFTISRDNAKNTVYLQMNSLKPEDTAVYYCAADSIGRLWGYGYWGQGTQVTVSS | high polyreactivity
QVQLVESGGGLVQAGGSLRLSCAASGRIFGFYAMGWYRQAPGKERELVARITLSGGRTYYADSVKGRFTISRDNAKNTVYLQMNSLKPEDTAVYYCAAVSYSKRTWSMNYWGQGTQVTVSS | high polyreactivity
QVQLVESGGGLVQAGGSLRLSCAASGRIFGFYTMGWYRQAPGKERELVAVINRGGRTYYADSVKGRFTISRDNAKNTVYLQMNSLKPEDTAVYYCAADYYTQGAYRGMDYWGQGTQVTVSS | high polyreactivity
QVQLVESGGGLVQAGGSLRLSCAASGRIFGGNAMGGYRQAPGKERELVAAITTGGSTNYADSVKGRFTISRDNAKNTVYLQMNSLKPEDTAVYYCNKRQSARLYGDTYDYWGQGTQVTVSS | low polyreactivity
QVQLVESGGGLVQAGGSLRLSCAASGRIFGGNAMGWFRQAPGKERELVAASTTRGGSTSADSVKGRFTISRDNAKNTVYLHMNSLKPEATAVYYCAVARSSHGGPRYLVRTYGYWGQATQVTVSS | low polyreactivity
QVQLVESGGGLVQAGGSLRLSCAASGRIFGGNAMGWYRKAPGTEREVVAAISWIGGTTYYADSVKGRFTISRDNAKNTVYLQMISLKPEDTAVYYCAAYRYRPHDHRYYRYDYWGQGTQVTVSS | high polyreactivity
QVQLVESGGGLVQAGGSLRLSCAASGRIFGGNAMGWYRPAPGKERELVGGISRRGGSTYYADSVKGRFTISRDNAKNTVYLQMYSLKPEDTAVYYCNAYYRYSVFAEKYDYWGQGTQVTVSS | high polyreactivity
QVQLVESGGGLVQAGGSLRLSCAASGRIFGGNAMGWYRQAAGKERELVAGITGSGGSTYYADSVKGRFTISRDNAKNTVYLQMISLKPEDTAVYYCAAGYTYYYPSSGFDYWGQGTQVTVSS | low polyreactivity
QVQLVESGGGLVQAGGSLRLSCAASGRIFGGNAMGWYRQAPGKECELVAAISKGGGSTNYADSVKGRFTISRDNAKNTVYLQMNSLKPEDTAVYYCAAVVSAHADDVDYWGQGTQVTVSS | high polyreactivity
QVQLVESGGGLVQAGGSLRLSCAASGRIFGGYAMGWSRQAPGKERELVAAISNGGSTYYADSVKGRFTISRDNAKNTVYLQMNSLKPEDTAVYYCAARWNWTGYRYDHWGQGTQVTVSS | low polyreactivity
QVQLVESGGGLVQAGGSLRLSCAASGRIFGGYAMGWYRQAPGKEREFVAAITTSGGSTYYADSVKGRFTISRDNAKNTVYFQMNSLKPEDTAVYYCAARGYIPARFVSLVYRYYYWGQGTQVTVSS | high polyreactivity
QVQLVESGGGLVQAGGSLRLSCAASGRIFGGYAMGWYRQAPGKERELVASITGGGTTDYADSVKGRFTISRDNAKNTVYLQMNSLKPEDTAVYYCAKRSHQFGVSRSYNTYYYWGQGTQVTVSS | low polyreactivity
QVQLVESGGGLVQAGGSLRLSCAASGRIFGGYTMGWYRQAHGKERELFAAITGSGGRTYYAYSVKGRFTISRDNAKNTVYLQMNSLKPEDTAVYYCNTVYRYRYYWGEGTQVTVSS | high polyreactivity
QVQLVESGGGLVQAGGSLRLSCAASGRIFGGYTMGWYRQAPGKEREFVAAITSSGGSTYYADSVKGRFTISRDNAKNTVYLQMNSLKPEDTAVYYCAVDDYYYDYDYWGQGTQVTVSS | low polyreactivity
QVQLVESGGGLVQAGGSLRLSCAASGRIFGHYTMGWYRQAPGKERELVAAISWGGVRTYYADSVKGRFTISRDNAKNTVYLQMNSLKPEVTAVYYCAARWRRYVYPDGHLFWYDYWGQGTQVTVSS | high polyreactivity
QVQLVESGGGLVQAGGSLRLSCAASGRIFGHYVMGWYRQAPGKERELVAAISYSGGSTYYADSVKGRFTISRDNAKITVYLQMISLKPEDTAVYYCAARETQDSPYGAYYYWGQGTQVTVSS | high polyreactivity
QVQLVESGGGLVQAGGSLRLSCAASGRIFGINAMGWYRQAPGKERELVASIDGGGSKNYADSVKGRFTISRDNAKNTVYLQMNSLKPEDTAVYYCAKERSEYRSRHQAYRYDYWGQGTQVTVSS | low polyreactivity
QVQLVESGGGLVQAGGSLRLSCAASGRIFGINSMGWYRQAPGKERELVAAITGGGSTYADSVKGRFTISRDNAKNTVYLQMNSLKPEDTAVYYCAAVSPRRYRYDYWGQGTQVTVSS | low polyreactivity
